Test results from the RNAGym collection of RNA variant scans (doi:10.1073/pnas.2313332121).

B1: TPR t1 (parent)
chain: GACCAAUCUGCCCUCAGAGCUCGAGAACAUCUUCGGAUGCAGAGGAGGCAGGCUUCGGUGGCGCGAUAGCGCCAACGUCCUCAACCUCCAAUGCAUCCCACCACAUGAUGAUGCCUGAAGAGCCUUGGUUUUUUG

Variants of: B1
Assay: polymerase ribozyme fitness, log enrichment relative to wild type (log ratio); higher = more active; in vitro selection for triplet polymerase activity
In short: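 Libraries of mutants in each subunit of a heterodimeric triplet polymerase ribozyme were generated by PCR and transcribed. In triplicate, each went through one in vitro selection round: annealing with biotinylated primer, partner subunit and triplets; frozen incubation at −7 °C; gel excision of extended constructs; streptavidin-bead capture; RT-PCR. Fitness, taken from Illumina sequencing of input and output libraries, is the logarithm of a genotype's enrichment over wild-type enrichment, averaged across replicates with inverse-variance weights. The logarithm is base 2, and genotypes needed ≥10 input reads and ≥1 read per output to be kept.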

Row | Variant | polymerase ribozyme fitness (log ratio)
1 | GACCAAUCUGCCUUCAGAGAGCGCGAACAUCUUCGGAUGCAGAGGAGGCAGGCUUCGGUGGCGCGAUAGCCCCAACGUCCUCAACCUCCAAUGCAUCCCACCACAUGAUGACGCCUGAAGAGACUUGGUUUUUUG [C13U C20A U21G A24C G71C U112C C123A] | -6.62
2 | GACCAAUCUGCCUUCAGAGAUCGAGAACAUCUUCGGAUGCAGAGGAGGCAGGCUUCGGUGGCGCGAUAGCGCCAACGUCCUCAACCUCCAAUGCAUCCCACCACAUGAUGAUGCCUGAAGAGCCUUGGUUUUUUG [C13U C20A] | -2.74
3 | GACCAAUCUGCCUUCAGAGUUCGAGAACAUCUUCGGAUGCAGAGGAGGCAGGCUUCGGUGGCGCGAUAGCGCCAACGUCCUCAACCUCCAAUGCAUCCCACCACAUGAUGAUGCCUGAAGAGCCUUGGUUUUUUG [C13U C20U] | -0.561
4 | GACCAAUCUGCCUUUAGAGCUCGAGACCGUCUUCGGAUGCAGAGGAGGCAGGCUUCGGUGGCGCGAUAGCGCUAACGUCCUCAACCUCCAAUGCAUCCCACCACAUGAUGAUGCCUGAAGAGCCUUGGUUUUUUG [C13U C15U A27C A29G C73U] | -4.69
5 | GACCAAUCUGCCUUCAGAGAUCGAGAGCAUCUUCGGAUACAGAGGAGGCAGGCUUCGGUAGCGCGAUAGCGCCAACGUCCUCAACCUCCAAUGCAUCCCACCACAUGAUGAUGCAUGAAGAGCCUUGGUUUUUUG [C13U C20A A27G G39A G60A C115A] | -5.26
6 | GACCAAUCUGCCUUCAGAGAUCGAGAACAUCUUCGGAUGCAGAGGAGGCAGGCUUCGGUGGCGCGAUAGCGACAACGUCCUCAACCUCCAAUGCAUCCCACCACAUGAUGAUGCCUGAAGAGCCUUGGUUUUUUG [C13U C20A C72A] | -2.75
7 | GACCAAUCUGCCUUUAGAGUUCGAGAACAUCUUCGGAUGCAGAGGAGGCAGGCUUCGGUGGCGCGAUAGCGCCAACGUCCACAACCUCCCAUGCAUCCCACCACAUGAUGAUGCUUGAAGAGCCUUGGUUUUUUG [C13U C15U C20U U81A A90C C115U] | -4.72
8 | GACCAAUCUGCCUUCAGAGUUCGAGAACAUCUUCGGAUGCAGAGGAGGCAAGCUUCGGUGGCGCGGUAGCGUCAACGUCCUCAACCUCCAAUGCAUCCCACCACAUGAAGAUGCCUGAAGAGCCUUGGUUUUUUG [C13U C20U G51A A66G C72U U109A] | -6.73
9 | GACCAAUCUGCCUUCAGAGGUCGAGAACAUCUUCGGAUGCAGAGGAGGCAGGCUUCGGUGGGGCGAUAGCGCCAACGUCCUCAACCUCCAAUGCAUCCCACCAAAUGAUUAUGCCUGAAGUGCCUUGGUUUUUUG [C13U C20G C62G C104A G110U A121U] | -6.79
10 | GACCAAUCUGCCUUCAGAGCUUGAGAACAUCUUCGGAUGCAGAGGAGGCAGGCUUCGGUGGCGCGAUAGCGCCAACGUCCUCAACUUCCAAUGCAUCCCACCACAUGAUGAUGCCUGAAGAGCCUUGGUUUUUUG [C13U C22U C86U] | -4.45
11 | GACCAAUCUGCCUUCAGAGCUGGAGAACAUCUUCGGAUGCAGAAGAGGCAGGCUUAGGUGGCGCGAUAGCGCCAACGUCCUCAACCUCCAAUGCAUCCCACCACAUGAUGAUGCCUGAAGAGCCUUGGUUUUUUG [C13U C22G G44A C56A] | -5.28
12 | GACCAAUCUGCCUUCAGAGUUCGAGAACAUCUUCGGAUGCAGAGGAGGCAGGCUUCGGUGACGCGAUAGCGCCAACGUCCUCAACCUCCAACGCAUCCCACCACAUGAUGAUGCCUGAAGAGCCUUGGUUUUUUG [C13U C20U G61A U92C] | -1.11
13 | GACCAAUCUGCCUUUAGAGCUCGAGAACAUCGUCGGAUGCAGAGGAGGCAGGCUUCGGUGGCGCGAUAGCGCCAACGUCCUCAACCUCCAAUGCAUCCCACCACAUGAUGAUGCCUGAAGAGCAUUGGUUUUUUG [C13U C15U U32G C124A] | -6.8
14 | GACCAAUCUGCCUUCAGAGCUGGAGAACAUCUUCGGAUGCUGAGGAGGCAGGCUUCGGUGGCGCGAUAGCGUCAACGGCCCCAACCUCCAAUGCAUCCCACCACAUGAUGAUGCCUGAAGAACCUUGGUUUUUUG [C13U C22G A41U C72U U78G U81C G122A] | -4.05
15 | GACCAAUCUGCCUUCAGAGCUUGAGAACAUCUUCGGAUGCAGAGGAGGCAGGCUUCGGUGGCGCGAUAGCGCCAACGUCCUAAACCUCCAAUGAAUCCCACCACAUGAUGAUGCCUGAAGUGCCUUGGUAUUUUG [C13U C22U C82A C94A A121U U130A] | -3.54
16 | GACCAAUCUGCCUUCAGAGCUCGAGAAGAUCUUCGGAUGCAGAGGAGGCAGGCUUCGGUGGCGCGAUAGCGCCAACGUCCUCAACCUCCAAUGCAUCCCACCACAUGAUGAUGCCUGAAGAGCCUUGGUUUUUUG [C13U C28G] | -1.58
17 | GACCAAUCUGCCUUCAGAGUUCGAGAACAUCUUCGGAUGCAGAGGAGGCAGGCUUCGGUGGCGCGAUAGCGCCAACGUCCUCGACCUCCAAUGCAACCCACCACAUGAUGAUGCCUGAAGAGCCUUGGUUUUUUG [C13U C20U A83G U96A] | -3.34
18 | GACCAAUCUGCCUUCAGAGUUCGAGAACAUCUUCGGAUGCAGAGGAGGCAGGCUUCGGUGUCGCGAUAGUGCCAACGUCCUCAACCUCCAACGCAUCCCACCACAUGAUGAUGCCUGAAGAGCCUUGGUUUUUUG [C13U C20U G61U C70U U92C] | -4.03
19 | GACCAAUCUGCCUUCAGAGUUCGAGAACAUCUUCGGAUGCAGAGGAGGCAGGCUUCGGUGGCGCGAUAGCGCCUACGUCCUCAACCUCCAAAGCAUCCCACCACAUGAUGAUGCCUGAAGAGCCUUGGUUUUUUG [C13U C20U A74U U92A] | -3.91
20 | GACCAAUCUGCCUUCAGAGCUCGAGAAAAUCUUCGGAUGCAGAGGAUGCAGGCUUCGGUGGCGCGAUAGCGCCAACGUCCUCAACCUCCAAUGCAUCCCACCACAUGAUGAUGCCUGAAGAGCCUUGGUUUUUUG [C13U C28A G47U] | -4.54
21 | GACCAAUCUGCCUUCAGAGUUCGAGAACAUCUUCGGAUGCAGAGGAGGCAGGCUUCGGUGGCGCGAUAGCGCCAACGUCCUCAACCUCCAAUGCAUCCCACCACAUGAUGAUGCCUGAACAGGCUUAGUUUUUUG [C13U C20U G120C C123G G127A] | -2.54
